Data published in paper doi:10.1101/2024.09.13.612941.

T1: SMARCAD1 (human, UniProt Q9H4L7-2 1-1028, V974A)
T1 sequence: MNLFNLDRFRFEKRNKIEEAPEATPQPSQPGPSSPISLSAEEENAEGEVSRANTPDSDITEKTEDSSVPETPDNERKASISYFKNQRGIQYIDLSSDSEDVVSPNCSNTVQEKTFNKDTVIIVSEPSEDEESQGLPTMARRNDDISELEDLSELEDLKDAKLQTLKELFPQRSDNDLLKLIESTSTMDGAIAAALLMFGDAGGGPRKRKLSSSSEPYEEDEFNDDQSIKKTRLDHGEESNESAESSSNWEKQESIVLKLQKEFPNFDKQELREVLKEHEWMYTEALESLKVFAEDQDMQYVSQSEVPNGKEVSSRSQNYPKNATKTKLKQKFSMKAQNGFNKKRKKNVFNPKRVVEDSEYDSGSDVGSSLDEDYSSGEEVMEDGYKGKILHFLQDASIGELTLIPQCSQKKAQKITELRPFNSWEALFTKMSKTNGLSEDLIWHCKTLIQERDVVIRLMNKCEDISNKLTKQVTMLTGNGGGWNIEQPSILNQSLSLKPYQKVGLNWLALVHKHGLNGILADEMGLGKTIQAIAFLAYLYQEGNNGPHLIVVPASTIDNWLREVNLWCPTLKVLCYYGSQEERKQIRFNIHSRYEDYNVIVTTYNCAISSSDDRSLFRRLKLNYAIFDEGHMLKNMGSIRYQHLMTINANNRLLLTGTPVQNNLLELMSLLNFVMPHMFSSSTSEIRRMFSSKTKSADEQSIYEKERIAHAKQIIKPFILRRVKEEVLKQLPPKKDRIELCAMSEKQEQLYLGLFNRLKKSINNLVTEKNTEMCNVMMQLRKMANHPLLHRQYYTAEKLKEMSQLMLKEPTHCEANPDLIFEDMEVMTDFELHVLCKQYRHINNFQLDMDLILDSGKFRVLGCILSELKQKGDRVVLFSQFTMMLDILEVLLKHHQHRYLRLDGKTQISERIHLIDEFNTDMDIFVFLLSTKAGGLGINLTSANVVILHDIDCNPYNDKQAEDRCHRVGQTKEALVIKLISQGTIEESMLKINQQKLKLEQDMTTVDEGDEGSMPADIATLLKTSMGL

B1: dsDNAshort (dsDNA)
DNA 1: GCAGCTGGCACGACAGGTATGAATC
DNA 2: GATTCATACCTGTCGTGCCAGCTGC
B2: DNA-RNA hybrid (DNA:RNA)
RNA: GCAGCUGGCACGACAGGUAUGAAUC
DNA: GATTCATACCTGTCGTGCCAGCTGC
B3: R-loopshort (mixed)
DNA 1: GCCAGGGACGAGGTGAACCTGCAGGTGGGCGGCTACTACTTAGATGTCATCCGAGGCTTATTGGTAGAATTCGGCAGCGTCATGCGACGGC
DNA 2: GCCGTCGCATGACGCTGCCGAATTCTACCACGCGATTCATACCTGTCGTGCCAGCTGCTTTGCCCACCTGCAGGTTCACCTCGTCCCTGGC
RNA: GCAGCUGGCACGACAGGUAUGAAUC

Legend:
[1] = molecular target: T1, SMARCAD1; test: fluorescence polarization
[2] = molecular target: T1, SMARCAD1; test: fluorescence polarization; remark: listed apart in the source

Binder | apparent K (half saturation) [1] [nM] | binding result [2]
B1 | 39.5 ± 2 | –
B2 | – | binds
B3 | 26.1 ± 1.4 | –
